# According to article PMC4481513, “Structural and Functional Analysis of Human HtrA3 Protease and Its Subdomains” (PLoS ONE, 2015):
# *1 amine or outer side, *2 acyl side, *3 side chain or, on linkers, in order; H or OH if unused. The star is where a group is joined. Benzoyl(5-NH,2-NO2) = O=C(c1cc(N[*:1])ccc1[N+](=O)[O-])[*:2]; Mca = COc1ccc2c(CC(=O)*)cc(=O)oc2c1
# Experiments:
# [1] = biological target: β-casein from bovine milk (bovine); assay: SEC; Superose 12 HR 10/30, room temperature, 50 mM Na2HPO4/NaH2PO4 pH 8.0, 250 mM NaCl; single proteins, HtrA3 proteins at 3 mg/ml, 50 μl loaded
# [2] = biological target: ΔN-HtrA3-ΔPDZ (residues His6–122–349), proteolytically active (human) (UniProt P83110)
# [3] = biological target: ΔN-HtrA3S (residues 130–357–His6), proteolytically active (human) (UniProt P83110)
# [4] = biological target: ΔN-HtrA3 (residues 130–453–His6), proteolytically active (human) (UniProt P83110)
# [5] = biological target: the molecule itself; assay: crystal structure; ΔN-HtrA3 S305A, sitting-drop vapor diffusion, 1 M sodium/potassium phosphate buffer pH 5.0, 16°C; three molecules per asymmetric unit; 3.27 Å
# Chain of ΔN-HtrA3-ΔPDZ (residues His6–122–349), proteolytically active (human) (P83110 122-349, stated change not applied): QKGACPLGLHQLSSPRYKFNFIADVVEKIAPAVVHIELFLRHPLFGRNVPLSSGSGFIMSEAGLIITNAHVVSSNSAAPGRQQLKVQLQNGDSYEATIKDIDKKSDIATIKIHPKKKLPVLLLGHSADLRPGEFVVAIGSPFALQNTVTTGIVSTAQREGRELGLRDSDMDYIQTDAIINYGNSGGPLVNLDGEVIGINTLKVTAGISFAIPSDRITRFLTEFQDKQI
molecule,measurement,setting,value
β-casein from bovine milk (natural protein),stoichiometry N,[1],3
"Mca-AIRRVSYSF-{Benzoyl(5-NH,2-NO2)-NH2} (SMILES CC[C@H](C)[C@H](NC(=O)[C@H](C)NC(=O)Cc1cc(=O)oc2cc(OC)ccc12)C(=O)N[C@@H](CCCNC(=N)N)C(=O)N[C@@H](CCCNC(=N)N)C(=O)N[C@H](C(=O)N[C@@H](CO)C(=O)N[C@@H](Cc1ccc(O)cc1)C(=O)N[C@@H](CO)C(=O)N[C@@H](Cc1ccccc1)C(=O)Nc1ccc([N+](=O)[O-])c(C(N)=O)c1)C(C)C) [Fluorescent substrate Ala(Mca)IRRVSYSF–ANB–NH2]","Km [μM] of cleavage of the peptide Ala(Mca)IRRVSYSF-ANB-NH2 (0.02 to 6 μM), 50 nM enzyme, 30°C, Michaelis-Menten fit",[2],0.878 µM
same,"Km [μM] of cleavage of the peptide Ala(Mca)IRRVSYSF-ANB-NH2 (0.02 to 6 μM), 50 nM enzyme, 30°C, Michaelis-Menten fit",[3],0.74 µM
same,"Km [μM] of cleavage of the peptide Ala(Mca)IRRVSYSF-ANB-NH2 (0.02 to 6 μM), 50 nM enzyme, 30°C, Michaelis-Menten fit",[4],0.958 µM
"ΔN-HtrA3_(S305A) (residues 130–453–His6), proteolytically inactive N-terminally truncated HtrA3L with protease and PDZ domains (domain or fragment, human, UniProt P83110 130-453, looked up, human HtrA3 long isoform (HtrA3L), residues 130-453: serine protease domain and PDZ domain, catalytic serine changed to alanine; Chain A of the structure runs to residue 459, that is into the His tag; also called ΔN-HtrA3-His6; pPG1; source: E. coli BL21(DE3) clpP::Cm r, purified (Ni-NTA; before crystallization also Superdex 200 gel filtration); not shown: His6, C-terminal, kept) LHQLSSPRYKFNFIADVVEKIAPAVVHIELFLRHPLFGRNVPLSSGSGFIMSEAGLIITNAHVVSSNSAAPGRQQLKVQLQNGDSYEATIKDIDKKSDIATIKIHPKKKLPVLLLGHSADLRPGEFVVAIGSPFALQNTVTTGIVSTAQREGRELGLRDSDMDYIQTDAIINYGNAGGPLVNLDGEVIGINTLKVTAGISFAIPSDRITRFLTEFQDKQIKDWKKRFIGIRMRTITPSLVDELKASNPDFPEVSSGIYVQEVAPNSPSQRGGIQDGDIIVKVNGRPLVDSSELQEAVLTESPLLLEVRRGNDDLLFSIAPEVVM",stoichiometry N,[5],3
